We go through 167 variants from the RNAGym collection of RNA variant scans (doi:10.7554/elife.80360).

B1: Hammerhead Ribozyme (parent)
chain: ACCGGAUGUGCUUUCCGGUCUGAUGAGUCCGUGAGGACGAAACAG

The variants in the data set derive from B1. Description: self-cleavage, relative activity (ratio to wild type); higher = more cleavage; co-transcriptional.
Regarding C11G A23U, the self-cleavage stood at 0.41.
C11G A23C: the self-cleavage turned out to be 0.549.
As for C11G A23G, the figure is 0.282; as for C11U A41G, 0.386.
As for C11U A41U, the figure is 0.278; as for C11U A41C, 0.337; as for C11G A26U, 1.05.
As for C11G A26C, the self-cleavage came to 0.725.
For C11G A26G, the self-cleavage is 0.393.
Take C11A U21C: the self-cleavage turned out to be 0.848.
With C11A U21A the figure was 0.895; with C11A U21G, 0.713.
With C11A C38G the figure was 0.881.
With C11A C38U, the self-cleavage came to 1.1.
As for C11A C38A, the figure is 0.892; as for C11U A37U, 0.665; as for C11U A37G, 1.12.
With C11U A37C the figure was 0.987; with C11A C30U, 0.87; with C11A C30G, 0.955.
As for C11A C30A, the figure is 1.1.
Turning to C11G G35C, the self-cleavage was 0.668.
With C11G G35U the figure was 0.957.
With C11G G35A the figure was 1.02; with C11A G17A, 0.717.
Take C11A G17C: the self-cleavage amounted to 0.506.
Consider C11A G17U, for which the self-cleavage was found to be 1.
Consider C11G C16U, for which the self-cleavage stood at 1.23.
Consider C11G C16G, for which the self-cleavage amounted to 0.999.
In the case of C11G C16A, the self-cleavage was 0.865.
As for C11A A26C, the figure is 0.725.
As for C11A A26U, the figure is 1.03; as for C11A A26G, 0.28.
With C11G G45C the figure was 0.962; with C11G G45U, 0.928; with C11G G45A, 0.626.
On to C11A A23C, for which the self-cleavage was found to be 0.491.
As for C11A A23G, the figure is 0.371.
With C11A A23U the figure was 0.401.
With C11A G31C the figure was 1.12; with C11A G31A, 1.21.
C11A G31U: the self-cleavage turned out to be 1.08.
With G10U G22U the figure was 0.351.
Take G10U G22C: the self-cleavage is 0.351.
As for G10U G22A, the figure is 0.354; as for C11A, 1.12; as for C11U, 1.02.
With C11G the figure was 1.12.
For C11A C20A, the self-cleavage is 0.452.
Consider C11A C20U, for which the self-cleavage was 0.681.
With C11A C20G the figure was 0.319; with G10U A37C, 0.934.
With G10U A37G the figure was 0.877; with G10U A37U, 0.768; with C11A U28G, 0.964.
With C11A U28A the figure was 1.04; with C11A U28C, 1.1.
Turning to C11G C20U, the self-cleavage turned out to be 0.695.
With C11G C20G the figure was 0.261; with C11G C20A, 0.477; with C11A U13C, 1.01.
In the case of C11A U13A, the self-cleavage turned out to be 1.46.
As for C11A U13G, the figure is 0.853; as for C11A C16G, 1.1; as for C11A C16U, 0.985.
With C11A C16A, the self-cleavage was 1.41.
Consider C11G U19C, for which the self-cleavage was found to be 0.532.
With C11G U19G the figure was 0.42.
As to C11G U19A, the self-cleavage is 0.296.
For the variant C11A A44U, the self-cleavage was found to be 0.666.
As for C11A A44C, the figure is 0.569.
As for C11A A44G, the figure is 1.57; as for G10U G27C, 0.861; as for G10U G27U, 0.507.
As for G10U G27A, the figure is 0.825; as for C11G G18U, 0.725; as for C11G G18A, 0.553.
In the case of C11G G18C, the self-cleavage came out at 0.426.
As for G10U G18A, the figure is 0.836.
With G10U G18C, the self-cleavage was 0.682.
On to G10U G18U, for which the self-cleavage stood at 0.877.
As for C11A U14C, the figure is 1.17; as for C11A U14G, 1.27; as for C11A U14A, 0.829.
As for C11A G22U, the figure is 0.246; as for C11A G22A, 0.348; as for C11A G22C, 0.35.
As for C11A G35C, the figure is 0.887; as for C11A G35U, 0.902.
With C11A G35A, the self-cleavage was 0.981.
Consider G10U C38G, for which the self-cleavage amounted to 0.848.
Turning to G10U C38U, the self-cleavage was determined as 1.09.
Consider G10U C38A, for which the self-cleavage turned out to be 0.645.
On to C11G A42C, for which the self-cleavage was 0.422.
With C11G A42G the figure was 0.303.
Regarding C11G A42U, the self-cleavage was found to be 0.326.
With G10U C20U the figure was 0.579.
With G10U C20G the figure was 0.343; with G10U C20A, 0.42.
As for G10U A34U, the figure is 0.864; as for G10U A34G, 0.942.
G10U A34C: the self-cleavage came out at 1.13.
With G10U C11U the figure was 1.14; with G10U C11G, 1.2; with G10U C11A, 1.25.
C11G U14C: the self-cleavage was 0.867.
Consider C11G U14A, for which the self-cleavage was 1.25.
As for C11G U14G, the figure is 0.74; as for C11G G22A, 0.304; as for C11G G22U, 0.378.
With C11G G22C the figure was 0.338; with G10U C15G, 0.826; with G10U C15U, 1.07.
As for G10U C15A, the figure is 0.817.
Turning to C11A G36A, the self-cleavage turned out to be 0.847.
As for C11A G36C, the figure is 0.911; as for C11A G36U, 0.762; as for G10U A42C, 0.45.
For the variant G10U A42G, the self-cleavage stood at 0.344.
Take G10U A42U: the self-cleavage turned out to be 0.304.
With G10U C16U the figure was 1.17; with G10U C16G, 1.01; with G10U C16A, 1.06.
For C11U A26U, the self-cleavage was 0.64.
Take C11U A26C: the self-cleavage came to 0.433.
Consider C11U A26G, for which the self-cleavage worked out at 0.335.
With G10U C43U the figure was 0.537; with G10U C43A, 0.354.
As to G10U C43G, the self-cleavage was found to be 0.405.
As for G10U U28G, the figure is 0.664; as for G10U U28A, 0.771; as for G10U U28C, 1.18.
As for C11G G27U, the self-cleavage was found to be 0.527.
As for C11G G27A, the figure is 0.839.
With C11G G27C the figure was 0.938.
In the case of G10U C29U, the self-cleavage was 0.94.
Regarding G10U C29A, the self-cleavage turned out to be 0.658.
As for G10U C29G, the figure is 0.621; as for G10U U19G, 0.435.
G10U U19A: the self-cleavage was found to be 0.347.
With G10U U19C the figure was 0.665; with C11A G33A, 1.22; with C11A G33U, 1.21.
In the case of C11A G33C, the self-cleavage was 1.27.
With C11A A42G the figure was 0.241; with C11A A42U, 0.282.
As for C11A A42C, the figure is 0.284.
With G10U A41C the figure was 0.422; with G10U A41U, 0.358; with G10U A41G, 0.372.
On to C11A C43U, for which the self-cleavage stood at 0.616.
As for C11A C43G, the figure is 0.353; as for C11A C43A, 0.357.
G10U G36C: the self-cleavage was found to be 0.929.
As for G10U G36U, the self-cleavage stood at 0.587.
In the case of G10U G36A, the self-cleavage stood at 0.65.
With G10U U13C the figure was 1.11; with G10U U13G, 0.674.
As for G10U U13A, the figure is 1.48; as for C11A G27U, 0.684; as for C11A G27C, 0.724.
Take C11A G27A: the self-cleavage worked out at 0.928.
For the variant C11U A40C, the self-cleavage was found to be 0.438.
With C11U A40G, the self-cleavage was determined as 0.342.
As for C11U A40U, the figure is 0.296.
With C11U A44C the figure was 0.474; with C11U A42G, 0.304.
